Substrate: C=C(O[C@@H]1C=C(C(=O)O)C=C[C@H]1O)C(=O)O
Test: enzyme kinetics, triplicate
Format: biochemical, Saccharomyces cerevisiae
Conditions: pH 6.5 or 7.5, 22 °C, 150 mM NaCl
Excerpt: enzyme kinetics, triplicate on chorismate mutase (CM) | a similar mutation (E219A)

B1: chorismate mutase (CM) (Saccharomyces cerevisiae S288C; E219A) (protein)
chain: MDFTKPETVLNLQNIRDELVRMEDSIIFKFIERSHFATCPSVYEANHPGLEIPNFKGSFLDWALSNLEIAHSRIRRFESPDETPFFPDKIQKSFLPSINYPQILAPYAPEVNYNDKIKKVYIEKIIPLISKRDGDDKNNFGSVATRDIECLQSLSRRIHFGKFVAEAKFQSDIPLYTKLIKSKDVEGIMKNITNSAVEEKILERLTKKAEVYGVDPTNASGERRITPEYLVKIYKEIVIPITKEVEVEYLLRRLEE
notes: TEV-cleavable tagged CM in pET21a, E. coli BL21*(DE3); 60 kDa homodimer
B1 gave a Km of 600 ± 200 µM.
